Legend:
[1] = target: FLAG-RACK1 WD1–4 (human RACK1 in which WD40 domains 5 to 7 have been deleted) (human); assay: co-IP; anti-FLAG immunoprecipitation (protein A magnetic beads) from extracts of mRNA-injected Xenopus embryos in EB buffer, 1 h at 4°C; Western blots with anti-xMELK, anti-RACK1, anti-FLAG or anti-myc antibodies; uninjected embryos as control
[2] = target: FLAG-RACK1 WD5–7 (human RACK1 in which WD40 domains 1 to 4 have been deleted) (human); assay: as above

Substance “myc-tagged xMELK (from UniProt Q91821 1-651) (enzyme)” has a fold of myc-xMELK co-immunoprecipitated (myc/FLAG ratio) compared to full length FLAG-RACK1 [1] of 2.1 times and a fold of myc-xMELK co-immunoprecipitated (myc/FLAG ratio) compared to full length FLAG-RACK1 [2] of 0.7 times.
